# Source: article PMC11417379
# Tested on: pTERF1 (Clostridia bacterium (ruminant gut metagenome))
# Experiment: BLI
# Settings: BLI: PBS, 0.02% Tween, pH 7.4, 25 C, 1:1 global fit; EMSA: 40 nM probe, room temperature 30 min, 6% native PAGE, buffer not stated
substance,measurement,value
pTERF1 motif probe,Kd,1.87 nM
